Numbering of substitutions follows the chain as printed. Names and notes keep the numbering of the source.
B1: L5 isolate with insertion SEQ ID NO: 392 (other)
chain: EPKSCDKTHTCPPCPAPELLGGPSVFLFPPKPKDTLMISRTPEVTCVVVDVSHEDPEVKFNWYVDGVEVHNAKTKPREEQYNSTYRVVSVLTVLHQDWLNGKEYKCKVSNKALPAPIEKTISKAKGQPREPQVYTLPPSRDELTKNQVSLTCLVKGFYPSDIAVEWESNGGCPHMFPWCGGGQPENNYKTTPPVLDSDGSFFLYSKLTVDKSRWQQGNVFSCSVMHEALHNHYTQKSLSLSPGK
B2: L5 isolate with insertion SEQ ID NO: 414 (other)
chain: B1 chain with P173V, H174N, M175T, F176W, P177W, W178S
B3: L5 isolate with insertion SEQ ID NO: 408 (other)
chain: B1 chain with P173Q, H174K, M175G, F176W, P177V, W178F
B4: L5 isolate with insertion SEQ ID NO: 412 (other)
chain: B1 chain with P173M, H174Q, M175P, F176W, P177A, W178F
B5: L5 isolate with insertion SEQ ID NO: 424 (other)
chain: B1 chain with P173Q, H174Y, M175P, F176R, P177K, W178L
B6: L5 isolate with insertion SEQ ID NO: 419 (other)
chain: B1 chain with P173Q, H174N, M175R, F176S, P177Y
B7: L5 isolate with insertion SEQ ID NO: 401 (other)
chain: B1 chain with P173M, H174V, M175P, P177S, W178M
B8: L5 isolate with insertion SEQ ID NO: 420 (other)
chain: B1 chain with P173H, H174G, M175T, F176K, P177Q, W178F
B9: L5 isolate with insertion SEQ ID NO: 406 (other)
chain: B1 chain with P173Y, H174Q, M175H, F176H, P177M, W178E
B10: L5 isolate with insertion SEQ ID NO: 417 (other)
chain: B1 chain with P173T, H174E, M175Q, F176V, P177M
B11: L5 isolate with insertion SEQ ID NO: 421 (other)
chain: B1 chain with P173N, H174P, M175H, F176R, P177T, W178P
B12: L5 isolate with insertion SEQ ID NO: 438 (other)
chain: B1 chain with P173K, H174S, F176I, P177S, W178M
B13: L5 isolate with insertion SEQ ID NO: 435 (other)
chain: B1 chain with P173K, H174R, M175E, F176N, W178Y
B14: L5 isolate with insertion SEQ ID NO: 433 (other)
chain: B1 chain with P173E, H174I, M175P, F176H, P177S, W178F
B15: L5 isolate with insertion SEQ ID NO: 430 (other)
chain: B1 chain with P173H, H174D, M175P, F176E, W178F
B16: L5 isolate with insertion SEQ ID NO: 432 (other)
chain: B1 chain with P173D, H174R, M175P, F176V, P177W, W178F
B17: L5 isolate with insertion SEQ ID NO: 393 (other)
chain: B1 chain with P173G, M175G, F176W, P177I, W178F
B18: L5 isolate with insertion SEQ ID NO: 426 (other)
chain: B1 chain with P173M, H174Q, M175P, F176W, P177I, W178N
B19: L5 isolate with insertion SEQ ID NO: 395 (other)
chain: B1 chain with P173I, H174L, M175N, P177Y, W178G
B20: L5 isolate with insertion SEQ ID NO: 413 (other)
chain: B1 chain with P173M, H174T, M175Q, F176Y, P177N
B21: L5 isolate with insertion SEQ ID NO: 431 (other)
chain: B1 chain with P173N, H174E, M175P, F176K, P177Y, W178V
B22: L5 isolate with insertion SEQ ID NO: 405 (other)
chain: B1 chain with P173Q, M175H, F176I, P177M, W178Q
B23: L5 isolate with insertion SEQ ID NO: 396 (other)
chain: B1 chain with P173R, H174E, M175P, F176H, W178F
B24: L5 isolate with insertion SEQ ID NO: 434 (other)
chain: B1 chain with P173M, H174P, M175Y, F176E, P177M, W178H
B25: L5 isolate with insertion SEQ ID NO: 437 (other)
chain: B1 chain with P173N, H174V, M175L, F176D, P177L, W178F
B26: L5 isolate with insertion SEQ ID NO: 403 (other)
chain: B1 chain with H174A, M175N, F176W, P177G, W178T
B27: L5 isolate with insertion SEQ ID NO: 402 (other)
chain: B1 chain with P173E, H174L, M175Q, F176E, P177R
B28: L5 isolate with insertion SEQ ID NO: 407 (other)
chain: B1 chain with P173M, H174V, M175P, P177S, W178M
B29: L5 isolate with insertion SEQ ID NO: 442 (other)
chain: B1 chain with P173N, H174V, M175L, F176D, P177L, W178F
B30: L5 isolate with insertion SEQ ID NO: 416 (other)
chain: B1 chain with P173E, H174T, M175H, F176Y, P177T, W178Y
B31: L5 isolate with insertion SEQ ID NO: 409 (other)
chain: B1 chain with P173V, H174Y, M175D, F176V, P177K, W178K
B32: L5 isolate with insertion SEQ ID NO: 404 (other)
chain: B1 chain with P173M, H174M, M175E, P177A, W178Q
B33: L5 isolate with insertion SEQ ID NO: 415 (other)
chain: B1 chain with P173Y, H174I, M175T, F176Q, P177K, W178L
B34: L5 isolate with insertion SEQ ID NO: 425 (other)
chain: B1 chain with P173I, H174G, M175P, P177W
B35: L5 isolate with insertion SEQ ID NO: 411 (other)
chain: B1 chain with P173N, H174M, M175L, F176W, P177G, W178S
B36: L5 isolate with insertion SEQ ID NO: 422 (other)
chain: B1 chain with P173Q, M175S, F176P, W178L
B37: L5 isolate with insertion SEQ ID NO: 397 (other)
chain: B1 chain with H174F, M175E, P177T, W178Q
B38: L5 isolate with insertion SEQ ID NO: 428 (other)
chain: B1 chain with P173E, H174M, M175E, F176N, P177A
B39: L5 isolate with insertion SEQ ID NO: 429 (other)
chain: B1 chain with H174P, M175W, F176P, P177E, W178R
B40: L5 isolate with insertion SEQ ID NO: 436 (other)
chain: B1 chain with P173A, H174E, M175R, F176Q, P177Y, W178Y
B41: L5 isolate with insertion SEQ ID NO: 423 (other)
chain: B1 chain with P173N, M175E, F176E, P177T, W178F
B42: L5 isolate with insertion SEQ ID NO: 399 (other)
chain: B1 chain with P173Y, H174E, M175N, F176K, P177T, W178L
B43: L5 isolate with insertion SEQ ID NO: 398 (other)
chain: B1 chain with P173Q, H174L, M175G, F176S, P177M, W178H
B44: L5 isolate with insertion SEQ ID NO: 418 (other)
chain: B1 chain with P173I, H174T, M175E, P177S, W178H
B45: L6B isolate with insertion SEQ ID NO: 455 (other)
chain: EPKSCDKTHTCPPCPAPELLGGPSVFLFPPKPKDTLMISRTPEVTCVVVDVSHEDPEVKFNWYVDGVEVHNAKTKPREEQYNSTYRVVSVLTVLHQDWLNGKEYKCKVSNKALPAPIEKTISKAKGQPREPQVYTLPPSRDELGGCVSAATSRTCGGTKNQVSLTCLVKGFYPSDIAVEWESNGQPENNYKTTPPVLDSDGSFFLYSKLTVDKSRWQQGNVFSCSVMHEALHNHYTQKSLSLSPGK

Target: T1, human neonatal Fc receptor (hFcRn) (human, UniProt P55899 24-290; P61769 21-119)
T1 construct: Biotinylated in the ELISA, Octet and yeast assays; also called human FcRn; huFcRn
Assay: phage ELISA pH 7.4
Protocol: (§1) Approximately 100 μL of biotinylated human FcRn at 2 μg/mL was added to the wells of MAXISORP™ plates coated with 10 μg/mL streptavidin. After washing with PBS plus 0.05% Tween 20 (PBST) five times, phage from the overnight cultures in MES buffer at pH 6.0 or pH 7.4 were added to the plates and incubated at room temperature for 1 hr. A horseradish peroxidase (HRP)-conjugated anti-M13 antibody was used to detect the binding phage, and the plates were scored by a microtiter plate reader using a wavelength in the visible range.
(§2) Binding was assessed by a quantitative enzyme-linked immunoadsorbent assay (ELISA). The ELISA scores reflect binding affinity, with higher scores meaning higher affinity. Typically, scores higher than about 3˜5 indicate binding above background. For library L5, the insertions are between the N169 and G170 according to the numbering in FIG. 2. For libraries 6A and 6B, the insertions are between L143 and T144 according to the numbering in FIG. 2.
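Further: higher score means stronger binding and above about 3 to 5 exceeds background.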

ELISA score | Binder
15.1 | B1
0.3 | B2
0.4 | B3
0.4 | B4
0.3 | B5
0.3 | B6
0.6 | B7
0.5 | B8
0.4 | B9
0.3 | B10
0.3 | B11
0.2 | B12
0.7 | B13
0.7 | B14
0.4 | B15
0.5 | B16
28.4 | B17
0.3 | B18
23.5 | B19
0.5 | B20
0.5 | B21
0.4 | B22
8.9 | B23

ELISA score | Binder
0.4 | B24
0.3 | B25
0.5 | B26
0.3 | B27
0.6 | B28
0.3 | B29
0.5 | B30
0.7 | B31
2.3 | B32
0.7 | B33
0.3 | B34
0.6 | B35
0.3 | B36
1.8 | B37
0.5 | B38
0.3 | B39
1.4 | B40
0.4 | B41
1.6 | B42
0.4 | B43
0.4 | B44
0.3 | B45

Target: T1, human neonatal Fc receptor (hFcRn)
Assay: phage ELISA pH 6
Protocol: as §1, §2

ELISA score | Binder
95.1 | B1
65.2 | B2
72 | B3
67.4 | B4
59.6 | B5
61 | B6
61 | B8
73.1 | B9
62.2 | B10
60.9 | B11
55.2 | B12
55.6 | B13
57.2 | B14
57.7 | B15
57.7 | B16
92.1 | B17
59.2 | B18
89.5 | B19
65.6 | B20
57.7 | B21

ELISA score | Binder
73.4 | B22
88.6 | B23
56.7 | B24
74.8 | B26
75.5 | B27
63 | B30
71.2 | B31
74.2 | B32
63.6 | B33
59.2 | B34
68.6 | B35
60.3 | B36
87.3 | B37
58.5 | B38
58.3 | B39
55.5 | B40
60.2 | B41
86.3 | B42
86.5 | B43
61.2 | B44
